Laboratory results taken from paper PMC5999394, “Design principles of a microtubule polymerase” (eLife, 2018).

Columns and labels:
[1] = biological target: wild-type yeast microtubules (polymerized wild-type yeast αβ-tubulin) (S. cerevisiae) (UniProt P09733); assay: TIRF microscopy, fluorescence intensity of the Stu2-eGFP spot on the growing microtubule end; end intensity dynamic assay; 5-300 nM Stu2-eGFP (titration, hyperbolic fit; apparent) or 200 nM variant; 0.8 μM wild-type yeast tubulin; 30°C
Chain of wild-type yeast microtubules (polymerized wild-type yeast αβ-tubulin) (S. cerevisiae) (P09733 whole entry, chain 1 of 2): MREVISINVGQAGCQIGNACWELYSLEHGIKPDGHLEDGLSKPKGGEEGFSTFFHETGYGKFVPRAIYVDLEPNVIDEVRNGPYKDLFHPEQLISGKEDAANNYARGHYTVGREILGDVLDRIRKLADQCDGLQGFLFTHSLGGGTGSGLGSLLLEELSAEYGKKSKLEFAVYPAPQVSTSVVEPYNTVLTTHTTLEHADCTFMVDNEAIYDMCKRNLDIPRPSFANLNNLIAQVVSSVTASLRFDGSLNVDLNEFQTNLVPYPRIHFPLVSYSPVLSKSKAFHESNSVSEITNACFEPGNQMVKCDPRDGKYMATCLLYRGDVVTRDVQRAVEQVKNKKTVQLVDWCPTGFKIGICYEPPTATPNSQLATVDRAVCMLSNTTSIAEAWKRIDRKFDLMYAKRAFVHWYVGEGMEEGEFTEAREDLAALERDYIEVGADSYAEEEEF
Chain of wild-type yeast microtubules (polymerized wild-type yeast αβ-tubulin) (S. cerevisiae) (P02557 whole entry, chain 2 of 2, further chain): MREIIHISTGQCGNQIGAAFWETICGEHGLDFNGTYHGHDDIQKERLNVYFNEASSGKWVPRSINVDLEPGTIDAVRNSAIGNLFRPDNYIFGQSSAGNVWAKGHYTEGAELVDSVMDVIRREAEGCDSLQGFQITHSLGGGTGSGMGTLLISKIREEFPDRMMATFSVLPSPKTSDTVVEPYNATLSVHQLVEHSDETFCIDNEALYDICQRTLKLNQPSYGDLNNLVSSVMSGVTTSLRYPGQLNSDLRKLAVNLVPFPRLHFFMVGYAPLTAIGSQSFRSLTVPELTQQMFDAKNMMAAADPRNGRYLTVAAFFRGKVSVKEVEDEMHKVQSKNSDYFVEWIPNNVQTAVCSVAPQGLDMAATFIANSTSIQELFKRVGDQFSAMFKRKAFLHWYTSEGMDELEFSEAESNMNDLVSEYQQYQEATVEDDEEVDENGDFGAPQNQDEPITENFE

[2] = biological target: T1, wild-type yeast microtubules (polymerized wild-type yeast αβ-tubulin) (S. cerevisiae, UniProt P09733 1-447; P02557 1-457); assay: TIRF microscopy of Stu2-eGFP on dynamic microtubules (kymographs); axoneme-seeded unlabeled dynamic yeast microtubules on the cover slip; Stu2-eGFP variant (100-200 nM) with 0.5-0.8 μM unpolymerized yeast tubulin in imaging buffer (1X PEM, 50 µM GTP, 0.1 mg/mL BSA, antifade); 30°C; conditions: both partners purified
T1 construct: Tub1p (yeast α-tubulin), S. cerevisiae; Tub2p (yeast β-tubulin), S. cerevisiae; Polymer of m2; also called microtubule lattice; microtubule end
T1 sequence (P09733 whole entry, chain 1 of 2): as the sequence (P09733 whole entry, chain 1 of 2) above
T1 sequence (P02557 whole entry, chain 2 of 2): as the sequence (P02557 whole entry, chain 2 of 2, further chain) above

[3] = biological target: T1, wild-type yeast microtubules …; assay: single-molecule TIRF microscopy, residence time on the growing microtubule end; 5 nM Stu2-eGFP variant with 1-1.5 µM unlabeled wild-type yeast tubulin; 100 ms streaming; one-phase exponential fit of the dwell times; 30°C; conditions: both partners purified
[4] = biological target: T1, wild-type yeast microtubules …; assay: TIRF microscopy, fluorescence intensity of the Stu2-eGFP spot on the growing microtubule end; end intensity dynamic assay; 5-300 nM Stu2-eGFP (titration, hyperbolic fit; apparent) or 200 nM variant; 0.8 μM wild-type yeast tubulin; 30°C; conditions: both partners purified

Molecule | relative amount of polymerase on the microtubule end (wild type = one) (relative to wild type) [1] | binding result [2] | characteristic residence time on the growing microtubule end [3] | relative amount of polymerase on the microtubule end (wild type = one) [4]
Stu2(TOG2-TOG2)-eGFP (from UniProt P46675 1-888) | 1 |  |  | 
'doubly dead' Stu2(TOG1*-TOG2*)-eGFP (natural protein, S. cerevisiae, UniProt P46675 1-888, looked up, Stu2, S. cerevisiae, fully dimeric (888) background; also called double dead Stu2; source: E. coli Arctic Express, purified (His60 Superflow, Strep-Tactin); not shown: eGFP, C-terminal, kept) MSGEEEVDYTTLPLEERLTYKLWKARLEAYKELNQLFRNSVGDISRDDNIQIYWRDPTLFAQYITDSNVVAQEQAIVALNSLIDAFASSSLKNAHNITLISTWTPLLVEKGLTSSRATTKTQSMSCILSLCGLDTSITQSVELVIPFFEKKLPKLIAAAANCVYELMAAFGLTNVNVQTFLPELLKHVPQLAGHGDRNVASQTMNLIVEIYKVTGNNSDLLEEILFKKLKPIQVKDLHKLFAKVGDEPSSSKMLFEWEKRELEKKRSQEEEARKRKSILSNDEGEYQIDKDGDTLMGMETDMPPSKQQSGVQIDTFSMLPEETILDKLPKDFQERITSSKWKDRVEALEEFWDSVLSQTKKLKSTSQNYSNLLGIYGHIIQKDANIQAVALAAQSVELICDKLKTPGFSKDYVSLVFTPLLDRTKEKKPSVIEAIRKALLTICKYYDPLASSGRNEDMLKDILEHMKHKTPQIRMECTQLFNASMKEEKDGYSTLQRYLKDEVVPIVIQIVNDTQPAIATIGFESFAILIKIFGMNTFVKTLEHLDNLKRKKIEETVKTLPNFSIASGSTHSTIETNKQTGPMENKFLLKKSSVLPSKRVASSPLRNDNKSKVNPIGSVASASKPSMVAANNKSRVLLTSKSLATPKNVVANSTDKNEKLIEEYKYRLQKLQNDEMIWTKERQSLLEKMNNTENYKIEMIKENEMLREQLKEAQSKLNEKNIQLRSKEIDVNKLSDRVLSLENELRNMEIELDRNKKRNDTNLQSMGTISSYSIPSSTVSSNYGVKSLSSALPFKEEEDVRRKEDVNYERRSSESIGDLPHRVNSLNIRPYRKNGTGVSSVSDDLDIDFNDSFASEESYKRAAAVTSTLKARIEKMKAKSRREGTTRT |  | binds |  | 
Stu2(TOG1*-TOG2)-eGFP (R200A) (natural protein, S. cerevisiae, UniProt P46675 1-888, looked up, Stu2, S. cerevisiae, fully dimeric (888) background; also called TOG1* (R200A); source: E. coli Arctic Express, purified (His60 Superflow, Strep-Tactin); not shown: eGFP, C-terminal, kept) MSGEEEVDYTTLPLEERLTYKLWKARLEAYKELNQLFRNSVGDISRDDNIQIYWRDPTLFAQYITDSNVVAQEQAIVALNSLIDAFASSSLKNAHNITLISTWTPLLVEKGLTSSRATTKTQSMSCILSLCGLDTSITQSVELVIPFFEKKLPKLIAAAANCVYELMAAFGLTNVNVQTFLPELLKHVPQLAGHGDRNVASQTMNLIVEIYKVTGNNSDLLEEILFKKLKPIQVKDLHKLFAKVGDEPSSSKMLFEWEKRELEKKRSQEEEARKRKSILSNDEGEYQIDKDGDTLMGMETDMPPSKQQSGVQIDTFSMLPEETILDKLPKDFQERITSSKWKDRVEALEEFWDSVLSQTKKLKSTSQNYSNLLGIYGHIIQKDANIQAVALAAQSVELICDKLKTPGFSKDYVSLVFTPLLDRTKEKKPSVIEAIRKALLTICKYYDPLASSGRNEDMLKDILEHMKHKTPQIRMECTQLFNASMKEEKDGYSTLQRYLKDEVVPIVIQIVNDTQPAIRTIGFESFAILIKIFGMNTFVKTLEHLDNLKRKKIEETVKTLPNFSIASGSTHSTIETNKQTGPMENKFLLKKSSVLPSKRVASSPLRNDNKSKVNPIGSVASASKPSMVAANNKSRVLLTSKSLATPKNVVANSTDKNEKLIEEYKYRLQKLQNDEMIWTKERQSLLEKMNNTENYKIEMIKENEMLREQLKEAQSKLNEKNIQLRSKEIDVNKLSDRVLSLENELRNMEIELDRNKKRNDTNLQSMGTISSYSIPSSTVSSNYGVKSLSSALPFKEEEDVRRKEDVNYERRSSESIGDLPHRVNSLNIRPYRKNGTGVSSVSDDLDIDFNDSFASEESYKRAAAVTSTLKARIEKMKAKSRREGTTRT |  |  | 1.7 s | 
Stu2(TOG1-TOG2*)-eGFP (R519A) (natural protein, S. cerevisiae, UniProt P46675 1-888, looked up, Stu2, S. cerevisiae, fully dimeric (888) background; also called TOG2* (R519A); source: E. coli Arctic Express, purified (His60 Superflow, Strep-Tactin); not shown: eGFP, C-terminal, kept) MSGEEEVDYTTLPLEERLTYKLWKARLEAYKELNQLFRNSVGDISRDDNIQIYWRDPTLFAQYITDSNVVAQEQAIVALNSLIDAFASSSLKNAHNITLISTWTPLLVEKGLTSSRATTKTQSMSCILSLCGLDTSITQSVELVIPFFEKKLPKLIAAAANCVYELMAAFGLTNVNVQTFLPELLKHVPQLAGHGDRNVRSQTMNLIVEIYKVTGNNSDLLEEILFKKLKPIQVKDLHKLFAKVGDEPSSSKMLFEWEKRELEKKRSQEEEARKRKSILSNDEGEYQIDKDGDTLMGMETDMPPSKQQSGVQIDTFSMLPEETILDKLPKDFQERITSSKWKDRVEALEEFWDSVLSQTKKLKSTSQNYSNLLGIYGHIIQKDANIQAVALAAQSVELICDKLKTPGFSKDYVSLVFTPLLDRTKEKKPSVIEAIRKALLTICKYYDPLASSGRNEDMLKDILEHMKHKTPQIRMECTQLFNASMKEEKDGYSTLQRYLKDEVVPIVIQIVNDTQPAIATIGFESFAILIKIFGMNTFVKTLEHLDNLKRKKIEETVKTLPNFSIASGSTHSTIETNKQTGPMENKFLLKKSSVLPSKRVASSPLRNDNKSKVNPIGSVASASKPSMVAANNKSRVLLTSKSLATPKNVVANSTDKNEKLIEEYKYRLQKLQNDEMIWTKERQSLLEKMNNTENYKIEMIKENEMLREQLKEAQSKLNEKNIQLRSKEIDVNKLSDRVLSLENELRNMEIELDRNKKRNDTNLQSMGTISSYSIPSSTVSSNYGVKSLSSALPFKEEEDVRRKEDVNYERRSSESIGDLPHRVNSLNIRPYRKNGTGVSSVSDDLDIDFNDSFASEESYKRAAAVTSTLKARIEKMKAKSRREGTTRT |  |  | 4 s | 0.5 relative to wild type
Stu2(TOG2-TOG2*)-eGFP (other) MSGEEEVDYTTEETILDKLPKDFQERITSSKWKDRVEALEEFWDSVLSQTKKLKSTSQNYSNLLGIYGHIIQKDANIQAVALAAQSVELICDKLKTPGFSKDYVSLVFTPLLDRTKEKKPSVIEAIRKALLTICKYYDPLASSGRNEDMLKDILEHMKHKTPQIRMECTQLFNASMKEEKDGYSTLQRYLKDEVVPIVIQIVNDTQPAIRTIGFESFAILIKIFGMNTFVKTLEHLDNLKRKKIEETVKTDEPSSSKMLFEWEKRELEKKRSQEEEARKRKSILSNDEGEYQIDKDGDTLMGMETDMPPSKQQSGVQIDTFSMLPEETILDKLPKDFQERITSSKWKDRVEALEEFWDSVLSQTKKLKSTSQNYSNLLGIYGHIIQKDANIQAVALAAQSVELICDKLKTPGFSKDYVSLVFTPLLDRTKEKKPSVIEAIRKALLTICKYYDPLASSGRNEDMLKDILEHMKHKTPQIRMECTQLFNASMKEEKDGYSTLQRYLKDEVVPIVIQIVNDTQPAIATIGFESFAILIKIFGMNTFVKTLEHLDNLKRKKIEETVKTLPNFSIASGSTHSTIETNKQTGPMENKFLLKKSSVLPSKRVASSPLRNDNKSKVNPIGSVASASKPSMVAANNKSRVLLTSKSLATPKNVVANSTDKNEKLIEEYKYRLQKLQNDEMIWTKERQSLLEKMNNTENYKIEMIKENEMLREQLKEAQSKLNEKNIQLRSKEIDVNKLSDRVLSLENELRNMEIELDRNKKRNDTNLQSMGTISSYSIPSSTVSSNYGVKSLSSALPFKEEEDVRRKEDVNYERRSSESIGDLPHRVNSLNIRPYRKNGTGVSSVSDDLDIDFNDSFASEESYKRAAAVTSTLKARIEKMKAKSRREGTTRT |  |  | 3.9 s | 0.5 relative to wild type
